The term Kd denotes the constant that tells how readily two partners part at equilibrium.

This is an account of results in publication PMC8458794 (Protein & Cell, 2021).

Test [1] has as its target recombinant S-ECD of SARS-CoV (Severe acute respiratory syndrome …, UniProt P59594). Briefly: cell-based or functional assay.
Test [2] has as its target T1, Avi-tagged SARS-CoV-2 RBD, biotinylated (Severe acute respiratory syndrome …, UniProt P0DTC2, biotin (BirA biotinylation of the Avi tag)).
T1 construct: also called biotinylated RBD protein of SARS-CoV-2
Briefly: BLI. The settings on record: both partners purified.

Test [3] addresses recombinant SARS-CoV-2 RBD protein (wild type) (SARS-CoV-2, UniProt P0DTC2). Briefly: ELISA. To be noted: both partners purified.

B1: XG014 monoclonal antibody (IgG) (antibody, V domains shown)
VH: EVQLVQSGAEVKKPGESLKISCKGSGYSFSNYWIGWVRHMPGKGLEWMGIIYPGDSDTRYSPSFQGQVTISVDTSISTAYLQWSSLKASDTAMYYCTRHQYGYNYGYFYYYIDVWGKGTTVTVSS
VL: QSVLTQPPSVSAAPGQKVTISCSGSSSNIGNNPVSWYRQVPGTAPKLLIYDNNKRPSGIPDRFSGSKSGASATLGITGLQTGDEADYYCGTWHTSLSSGVFGGGTKLTVL
As to B1, the “IC50 of neutralisation of SARS-CoV pseudovirus in Huh-7 cells” value in test [1] worked out at 0.016 µg/mL. Moreover, the Kd in test [2] was < 1 pM.

B2: XG005 monoclonal antibody (IgG) (antibody, V domains shown)
VH: QVTLRESGPTLVKPKQTLTLTCTFSGFSLSTPGGGVGWIRQPPGKALEWLALIYWDDDKRYSPSLKSSLTITKDTSKNQVVLTMTNMDPVDTATYYCARLTAADTIFDCWGQGTLVTVSS
VL: QSALTQPASVSGSPGLSITISCTATSSDVGAYNYVSWYQQHPGQAPKLMIYDVSKRPSGVSNRFSGSKSANTASLTISGLQAEDEADYYCSSYTTTSVVFGGGTKLTVL
Consider B2, for which the binding result in test [3] is listed as “binds”.
